In US10138280B2, “Polypeptides targeting glycosylated MUC2 proteins, methods of synthesis, their nucleic acids and uses thereof” (INSTITUT PASTEUR, priority 2011, dated 2018):

Legend:
[1] = tested on: mucus layer of differentiated HT-29 MTX human epithelial colonic cells; test: Staining of living HT-29 MTX cells, epifluorescent microscope; format: cell-based; conditions: living differentiated HT-29 MTX; 1 μg/mL, 2 h, serum-free media
Experimental: FIGS. 3A-3B. Cy5-MUB70 colonic mucus binding property. (FIG. 3A) HT-29 MTX living cells were incubated for 2 h with Cy5-MUB70 in a serum-free media. The resulting fluorescent signal (red) was visualized at the surface of the cell layer using an epifluorescent microscope. Z-projection, performed using ImageJ software, allowed 3D localization of Cy5-MUB70 fluorescence signal in the mucus layer. Bar is 10 μm (FIG. 3B) MPE and SHG imaging of the binding of Cy5-MUB70 to the human colonic mucus. […] Human tissue autofluorescence is detected in the same red channel as Cy5.
For dot blot assay, goat α-MUC2 pAbs (sc-13312, Santa Cruz), mouse α-MUC5ac (Abcam), mouse α-MUC5b mAbs (Abcam), mouse α-MUC6 mAbs (sc-33668, Santa Cruz), mouse α-lactoferrin mAbs (sc-52048, Santa Cruz) and rabbit α-FCGBP pAbs (Sigma-Aldrich) antibodies were used at a 1:100 dilution. Corresponding HRP-Conjugated antibodies were used at a 1:1000 dilution. For staining living HT-29 MTX cells and on human colon ex vivo model, Cy5-MUB70 was incubated (1 μg/mL) in a serum starved culture medium (DMEM and RPMI respectively) for two hours at 37° C. prior observation.
Fluorescent labeled tissues and cells were observed using a widefield epifluorescent microscope (Zeiss Definite Focus), laser-scanning confocal microscope (Leica TCS SP5) or a two-photons confocal microscope (Zeiss LSM710), as indicated. […]

[2] = biological target: T1, human colonic mucus and goblet cells (Homo sapiens, UniProt Q02817); test: Fluorescent staining of healthy human colon, formol fixed, paraffin embedded samples
T1 construct: Segments of human colon (ascending, descending and sigmoid colon) were obtained from fully informed patients undergoing surgery; from tissue; host or cells: healthy human colon segments (live explants, mucus collected from them, Carnoy- or formol-fixed sections)
Experimental: FIG. 22. Schematic description of the Cy5-MUB40-1, Cy5-MUB40-2, Cy5-MUB40-3, Cy5-MUB40-4 peptides (SEQ ID NOS 62 to 65). Fluorescent staining of human colonic mucus was performed by the addition of 1 μg/mL of the corresponding Cy5-conjugated peptides with Phalloidin-RRX (1:100) on formol fixed, paraffin embedded samples. Image acquisition was performed using a fluorescent confocal microscope (see Methods).
FIG. 23 Comparative staining analysis of human colonic goblet cells using Cy5-MUB70 and Cy5-MUB40-1. Fluorescent staining of human colonic mucus was performed by the addition of 1 μg/mL of the corresponding Cy5-conjugated peptides with Phalloidin-RRX (1:100) on formol fixed, paraffin embedded samples. Image acquisition was performed using a fluorescent confocal microscope (see Methods).
FIGS. 24A-24B. Comparative human colonic mucus staining using MUB70-Cy5 on healthy tissues and mucinous carcinomas (Coic et al, JBC, 2012 (41)). Fluorescent staining of human colonic mucus was performed by the addition of 1 μg/mL of the corresponding Cy5-conjugated peptides with Phalloidin-RRX (1:100) on formol fixed, paraffin embedded samples. Image acquisition was performed using a fluorescent confocal microscope (see Methods).
As colonic mucinous carcinomas are characterized by abnormal overproduction of Muc2 in the colon mucosa (40), the inventors have hypothesized that Cy5-MUB70 could be used as a novel fluorescent marker for the diagnosis of this pathology. […] As shown previously on a healthy colon (FIG. 3B), the luminal mucus secreted fraction is detected by Cy5-MUB70 (FIG. 24A, top panel). […] This observation might be the consequence of a higher level of mucus compaction, resulting in a lower accessibility for MUB70 to bind Muc2. […] Cy5-MUB70 has been validated as a potent innovative diagnostic tool for colonic mucinous carcinoma detection and might be optimized with alternative markers (e.g. biotin) for practical clinical applications.

[3] = tested on: human neutrophil (PMN) granules; test: Human neutrophil (PMN) granule staining; format: cell-based
Experimental: FIG. 14. Staining of individual neutrophiles (white blood cells) in human blood sample. Cy5-MUB70 was incubated on ethanol 100% fixed blood sample. […] (Details are provided on the Figure). […] In particular, granules staining is achieved.
FIG. 15. Staining of individual neutrophiles (white blood cells) purified from fresh human blood sample. Cy5-MUB70 was incubated on PFA 4% fixed neutrophiles (PFA treatment for 15 min, wash 3 times in PBS). Signal was detected as dots distributed in neutrophile cytoplasms. (Staining with Dapi 1:1000 and EB1C5 1:1000 in PBS+10% FCS+0.1% Saponin). […] In particular, granules staining is achieved.
FIG. 29. Identification of Muc2 in neutrophile granules using MUB70-Cy5. Human neutrophil (PMN) granule staining using Cy5-MUB70. PMN were purified from healthy donor blood samples and fixed in the presence of 4% PFA. Fluorescent staining of human colonic mucus was performed by the addition of 1 μg/mL of Cy5-MUB70 (Red) with Dapi (1:100) (Blue) and 1:200 anti-Muc2 antibody (Green). Image acquisition was performed using a fluorescent confocal microscope (see Methods).
FIG. 31. Identification of Muc2 in neutrophile granules. Human neutrophil (PMN) granule staining using Cy5-MUB40-1, Cy5-MUB40-2, Cy5-MUB40-3, Cy5-MUB40-4 peptides. Schematic description of the Cy5-conjugated peptides. PMN were purified from healthy donor blood samples and fixed in the presence of 4% PFA. Fluorescent staining of human colonic mucus was performed by the addition of 1 μg/mL of the Cy5-conjugated peptides (Green) with Dapi (1:100) (Blue) and Phalloidin-RRX (1:1000) (Red). Image acquisition was performed using a fluorescent confocal microscope (see Methods).
The invention has also proven to be useful for the monitoring of neutrophile degranulation events, in particular by using MUB70 and/or MUB40 polypeptides or polypeptides sharing identity with MUB70 and/or MUB40 polypeptides, or fragments thereof, for labelling neutrophile granule(s).

mucosal staining in healthy colon tissues ([2]; colonic mucosa of healthy colon tissues from the same patients): no mucosal staining was observed | luminal mucus secreted fraction staining in healthy colon ([2]; healthy colon, fixed): detected | goblet cells binding ([2]; human colonic goblet cells, fixed samples, 1 μg/mL): not recognized
B1: Cy5-MUB70: Cy5-labelled MUB70 polypeptide, labelled via Cy5 maleimide on N-terminal cysteine (conjugate)
peptide: CVHVQYIDGETDQMLRQDDLDGYTDETIPYSTAEGIKKFEGDGYELFKDNFPAGEKFDNDDTNDQFYTVIF
mucus layer binding on living cells [1]: binding the mucus layer at the surface of the cells | PMN granule staining ([3]; PMN purified from human blood, fixed in 4% PFA, 1 μg/mL): binding specifically a neutrophile granule component | neutrophile staining in human blood sample ([3]; ethanol 100% fixed blood sample): Signal was detected as diffused in neutrophile cytoplasm
